# Assay results reported in the nanobody polyreactivity screen of Harvey et al. (2022).
# Experiment: yeast display, Sf9 membrane polyspecificity reagent, FACS + sequencing; frameworks hold sequencing errors
# Summary of the method: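 In a synthetic yeast display library (Saccharomyces cerevisiae BJ5465), nanobody expression was induced with galactose for 36–48 hours. FACS gates were set low and high (top ~1%) using anti-HA fluorescence for expression and streptavidin fluorescence for binding of the Sf9 membrane reagent. Each polyreactivity label is drawn from the gate of origin.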
row,Sequence,polyreactivity (PSR sort gate)
1,QVQLVESGGGLVQAGGSLRLSCAASGIIFGRNAMGWYRPAPGKERELVAVITGGGGRTYYADSVKGRFTISRDNAKKTVYLQMNSLKPEDTAVYYCNKDYRRNLAYFKEPGVPVDYWGQGTQVTVSS,low polyreactivity
2,QVQLVESGGGLVQAGGSLRLSCAASGIIFGRYAMGWYRQAPGKERELVAAINASGGSTYYADSVKGRFTISRDNAKNTVYLQMNSLKPEDTAVYYCATRSTRSRTSGYYYWGQGTQVTVSS,high polyreactivity
3,QVQLVESGGGLVQAGGSLRLSCAASGIIFGRYAMGWYRQAPGKERELVAAISTSGGSTYYADSVKGRFTISRDNAKNTVYLQMNSLKPEDTAVYYCAARHREAQRRYDYWGQGTQVTVSS,high polyreactivity
4,QVQLVESGGGLVQAGGSLRLSCAASGIIFGRYTMGWSRQAPGKERELVAAITSSGITYYADSVKGRFTISRDNAKNTVYLQMNSLKPEDTAVYYCIADYSSPGYYWPYDYWGQGTQVTVSS,low polyreactivity
5,QVQLVESGGGLVQAGGSLRLSCAASGIIFGRYTMGWYRQAPGKERELVAAITSSGITYYADSVKGRFTISRDNAKNTDYLQMNSLKPEDTAVYYCNADYSIPGYYWPYDYWGQGTQVTVSS,low polyreactivity
6,QVQLVESGGGLVQAGGSLRLSCAASGIIFGTNAMGWYRQAPGKERELVAYITSGGSTYADSVKGRFTISRDKAKNTVYLQMNSLKPEDTAVSYCNADTGKWGGNGWYEFDYWGQGTQVTVSS,low polyreactivity
7,QVQLVESGGGLVQAGGSLRLSCAASGIIFHPYAMGWYRQAPGKERELVAVITWPGDSTYYADSVKGRFTISRDNAKNTVYLQMNSLKPEDTAVYYCNAAVEGSLNGYEYWGQGTQVTVSS,low polyreactivity
8,QVQLVESGGGLVQAGGSLRLSCAASGIIFHYYAMGWYRQAPGKERDLVAAISGSGGSTYYADSVKGRFTISRDNAKNTVFLQMNSLKPEDTAVYYCAAILWGGGGYWGQGTQVTVSS,high polyreactivity
9,QVQLVESGGGLVQAGGSLRLSCAASGIIFIAYAMGWYRQAPGKERELVADISIGGSTNYADSVKGRFTISRDNAKNTVYLQMNSQKPEDTAVYYCNAGGGFYGSTVEHDYWGQGTQVTVSS,low polyreactivity
10,QVQLVESGGGLVQAGGSLRLSCAASGIIFIFYDMGWYRQAPGKERELVATITSGTNTDADSVKGRFTISRDNAKNTVYLQMNSLKPEDTAVYYCAAGFSPASQLDYWGQGTQVTVSS,low polyreactivity
11,QVQLVESGGGLVQAGGSLRLSCAASGIIFIGNAMGWYRQAPGKERELVAAITYTGGSTYYADSVKGRFTISRDNAKNTVYLQMNSLKPEDTAVYYCAVDRTHLEDDYWGQGTQVTVSS,low polyreactivity
12,QVQLVESGGGLVQAGGSLRLSCAASGIIFIKYAMGWYRQAPGKERELVAAITSGGSTHYADSVKGRFTISRDNAKNTVYLQMNSLKPEDTAVYYCNADILRHVAYFKDRYQAGSYWGQGTQVTVSS,low polyreactivity
13,QVQLVESGGGLVQAGGSLRLSCAASGIIFITYAMGWYRQAPGKERELVAAITNSGGGTYYADSVKGRFTNSRDNAKNTVYLQMNSLKPEDTAVYYCAARKTAYGYRYDYWGQGTQVTVSS,high polyreactivity
14,QVQLVESGGGLVQAGGSLRLSCAASGIIFIYYDMGWYRQAPGKERELVAAISRSGGSTYYADSVKGRFTISRDIAKNTFYLQMNSLKPEDTAVYYCAARRITSTDEYYWGHGTQVTVSS,high polyreactivity
15,QVQLVESGGGLVQAGGSLRLSCAASGIIFIYYTMGWYRQSPGKERELVAVITTSGDGTYYADSVKGRFTISRDNAKNTVYLQMNSLKPEDTAVYYCAASYSTWVSTRNDYWGQGTQVTVSS,low polyreactivity
16,QVQLVESGGGLVQAGGSLRLSCAASGIIFKGYDMGWYRQAPGKERELVAAISSGSTNYADSVKGRFTISRDNAKNTVYLQMNSLKPEDTAVYYCNKDSISYTWGYDYWGQGTQVTVSS,low polyreactivity
17,QVQLVESGGGLVQAGGSLRLSCAASGIIFKLNAMGWYRQAPGKEREFVAAITRRGGITFYADSVKGRFTISRDNAKNTVYLQMNSLKPEDTAVYYCAASPGRRRRPYASLIRYDYWGQGTQVTVSS,high polyreactivity
18,QVQLVESGGGLVQAGGSLRLSCAASGIIFKNYAMGWYRQAPGKERELVAAISWRGGRTYYADSVKGRFTISRDNAKNTVYLQMNSLIPEDTAVYYCAKELYVSYRGGPWVDYWGQGTQVTVSS,high polyreactivity
19,QVQLVESGGGLVQAGGSLRLSCAASGIIFKQNVMGWYRQAPGKERELVAAITSRDGSTYYADSVKGRFTISRDNAKNTVYLQMNSLKPEDTAVYYCAAKWRSPRYYLYGYWGQGTQVTVSS,high polyreactivity
20,QVQLVESGGGLVQAGGSLRLSCAASGIIFKSYTMGWYRQAPGKERELVAAINSSGDRTYYADSVKGRFTISRDNAKNTVYLQMNSLKPEDTAVDYCAAAPVKKSRFRYDYWGQGTQVTVSS,high polyreactivity
21,QVQLVESGGGLVQAGGSLRLSCAASGIIFKYYAMGWSRQAPGKERELVAAISWTGDSTYADSVKGRFTISRDNAKNTVYLQMNSLKPEDTAVYYCAVAFRRVRSLGEGYWGQGTQVTVSS,low polyreactivity

row,Sequence,polyreactivity (PSR sort gate)
1,QVQLVESGGGLVQAGGSLRLSCAASGIIFLDYVMGWYRQAPGKERELVAAINSGGSTYYADSVKGRFTISRDNAKNTVYLQMNSLKPEDTAVYYCAADDYYKFDYWGQGTQVTVSS,low polyreactivity
2,QVQLVESGGGLVQAGGSLRLSCAASGIIFLNYAMGWYRQAPGKERELDAGITGRGGITYYTDSVKGRFTISRDNAKNTVYLQMNSLKPEDTAVYYCAARRYRFAGDYRMYYWGQGTQVTVSS,high polyreactivity
3,QVQLVESGGGLVQAGGSLRLSCAASGIIFLWYAMGWYRQAPGKERELVAAITSGGSTYYADSVKGRFTISRDNAKNTVYLQMNSLKPEDTAVYYCAAVNGWRRVKRFDYWGQGTQVTVSS,high polyreactivity
4,QVQLVESGGGLVQAGGSLRLSCAASGIIFNPYALGWYRHAPGKERELVATISRGGRTNYADSVKGRFTISRDNAKNTVYLQLHSLKPEDTAVYYCNKTASGRYHYDYWGQGTQVTVSS,low polyreactivity
5,QVQLVESGGGLVQAGGSLRLSCAASGIIFNSNAMGWYRQAPGKERELVAAISVSGGSTYYADSVKGRFTISRDNAKNTVYLQMYSLIPEDTAVYYCNARSLYPWRWKKEYGHWGQGTQVTVSS,high polyreactivity
6,QVQLVESGGGLVQAGGSLRLSCAASGIIFNSYSMGLYRHAPGKERELVAAITYSGTRTYYADSVKGRFTISRDNAKNTVYLQMNCLKPEDTAVYYCNAVTGRGRTITQYDSWGQGTQVTVSS,high polyreactivity
7,QVQLVESGGGLVQAGGSLRLSCAASGIIFNTYAMGWYRQAPGKERELVAAIDSRDASTYADSVKGRFTISRDNAKNTVYLQMNSLKPEDTAVYYCAATHIVDLISEVYYWGQGTQVTVSS,low polyreactivity
8,QVQLVESGGGLVQAGGSLRLSCAASGIIFNTYAMGWYRQAPGKERELVAAIDSRDASTYADSVKGRFTISRDNAKNTVYVQMNSLKPEDTAVYYCNARIESYWLDFDYWGQGTQVTVSS,low polyreactivity
9,QVQLVESGGGLVQAGGSLRLSCAASGIIFPFYAMGWYRQAPGKEREFVAAITSGDDTYYADSVKGRFTISRDNAKNTVYLQMNSLKPEDTAVYYCNKRLYIAGYWPQLYYIMDYWGQGTQVTVSS,low polyreactivity
10,QVQLVESGGGLVQAGGSLRLSCAASGIIFPGYAMGLYRQAPGKERELVAAISRSGASTYYADSVKGRFTISRDNAKNTVYLQMNSLKPEDTEVYYCAAEWYLGGEYRRYDYWGQGTQVTVSS,high polyreactivity
11,QVQLVESGGGLVQAGGSLRLSCAASGIIFPNYAMGWYRPAPGKERELVAAIDDDASTTYADSVKGRFTISRDNAKNTVYLQMNSLKPEDTAVYYFAADGFDWYDWRWTYDYWGQGTQVTVSS,high polyreactivity
12,QVQLVESGGGLVQAGGSLRLSCAASGIIFPWSTMGWYRQAPGKERELVAAISSGGRTNYADSVKGRFTISRDNAKNTVYLQMNSLKPEDTAVYYCAAKYYRDRDWGQGTQVTVSS,high polyreactivity
13,QVQLVESGGGLVQAGGSLRLSCAASGIIFPYYAMGWYRQAPGKERELVAAISIDGSTNYAVSVKGRFTISRDNAKNTVYLQMNSLKPEDTAVYYCNTTAFSTYQVGFLYDYWGQGTQVTVSS,low polyreactivity
14,QVQLVESGGGLVQAGGSLRLSCAASGIIFPYYAMGWYRQAPGKESELVAAISQSGGSTYYADSVKGRFTISRDNAKNTVFFQMNSVKPEDTAVYYCDKFIPSYHDGDYWGQGTQVTVSS,low polyreactivity
15,QVQLVESGGGLVQAGGSLRLSCAASGIIFPYYTMGGYRQAPGKERELVARITNGGRTYSADSVKGRFTISRDKAKNTVYLQMNSLKPEDTAVYYCAASWGRRKPRMDYWGQGTQVTVSS,high polyreactivity
16,QVQLVESGGGLVQAGGSLRLSCAASGIIFQIYAKGWYRQAPGKERELVAAISGGGNTDYADSVKGRFTISRDNAKNTVYLQMNSLKPEDTAVYYCAADFVDWVWSRYGLFEHDYWGQGTQVTVSS,low polyreactivity
17,QVQLVESGGGLVQAGGSLRLSCAASGIIFQQYAMGWYRQAPGKERELVAAITYSGDGTYYADSVKGRFTISRDNANNTVYLQMNSLKPEDTAVYYCAAYPRDPYKEYDYWGQGTQVTVSS,low polyreactivity
18,QVQLVESGGGLVQAGGSLRLSCAASGIIFQRNDMGWYRQAPGKERELVANIRDGGITYADSVKGRFTISRDNAKNTVYLQMNSLKPEDTAVYYCARDDTSPGYCDQSSNAAYYYWGQGTQVTVSS,low polyreactivity
19,QVQLVESGGGLVQAGGSLRLSCAASGIIFQSYTMGWYRQAPGKERELVAAIDSGGSTYYADSVKGRFTISRDNAKNTVYVQMNSLKPEDSAVYYCATDYPLYWSTLYDYDYWGQGTQVTVSS,low polyreactivity
20,QVQLVESGGGLVQAGGSLRLSCAASGIIFRAYAMGWYRPAPGKERELVAAISWSGGSTYYADSVKGRFTISRDNAKNTVYLQMNSLKPEDTAVYYCAAESLVYDFDYWGQGTQVTVSS,high polyreactivity
